4 substances from article PMC10953408 can be followed below.

Test [1] deals with LgBit‐IL12Rβ1 (UniProt P42701). As to the kind of experiment: split reporter (BiFC, NanoBiT); complementary NanoBiT-tagged receptor constructs co-expressed in HEK293T cells; luminescence of living cells in HBSS with 1 mg/ml BSA after furimazine, plate reader; with or without 10 nM IL-23, with or without co-expressed untagged IL12Rβ1.
Another test concerns the target LgBit‐IL23R (UniProt Q5VWK5). The test is described as above.
The target in a further test is LgBit‐VEGFR‐2 (UniProt P35968). Description: split reporter (BiFC, NanoBiT); HiBit-IL23R (80 ng per well) co-transfected with LgBit-IL12Rβ1 or LgBit-VEGFR-2 (20 ng per well) in HEK293T cells; luminescence given as percent of that of the LgBit receptor alone with 50 nM purified HiBit; HBSS/0.1% BSA, 37°C. (HiBiT is a short tag that completes a luciferase, so light tracks the accessible tagged protein.)

The target of test [2] is LgBit‐IL12Rβ1 (UniProt P42701). Described as above.
The target in test [3] is NanoBiT complemented heteromer of HiBit‐IL23R and LgBit‐IL12Rβ1 (UniProt Q5VWK5).
For test [4] the target is unchanged. Description: FRET or BRET; NanoBiT BRET saturation: concentration titration of IL23-TMR for 1 h on living HEK293T cells expressing complemented NanoBiT receptors, with or without unlabelled IL-23; HBSS with 1 mg/ml BSA; one site total and nonspecific fit. On the technique in general: In BRET a luciferase serves as donor, and the signal depends on an acceptor being close.

For test [5], the target named is Trimeric or multimeric species of HiBit‐IL23R, LgBit‐IL23R and IL12Rβ1 (UniProt Q5VWK5). The test is described as above.

In the test with LgBit‐IL12Rβ1 [1], “HiBit‐IL23R (from UniProt Q5VWK5 24-629) (receptor)” displayed a fold luminescence over the mean of the receptor constructs expressed in isolation of 73.3 fold. In the test with LgBit‐IL23R, the fold lower luminescence than the equivalent heteromeric condition was determined as 2.12 fold and the fold stronger luminescence than the SmBit homomer was determined as 6.36 fold. For the same substance, in the test with LgBit‐VEGFR‐2, the luminescence as percent of that of LgBit-VEGFR-2 with 50 nM purified HiBit came out at 11.6%. Besides, the luminescence as percent of that of LgBit-IL12Rβ1 with 50 nM purified HiBit with LgBit‐IL12Rβ1 [2] amounted to 73%.

As for “Recombinant IL‐23 (from UniProt Q9NPF7 20-189; P29460 23-328) (ligand)”, the EC50 of STAT3 phosphorylation (phospho-STAT3 AlphaLISA), increasing concentrations of IL-23 on cells expressing HiBit-IL23R and LgBit-IL12Rβ1 in test [3] amounted to 0.193 nM.

In the test with LgBit‐IL12Rβ1 [1], “SmBit‐IL23R (from UniProt Q5VWK5 24-629) (receptor)” displayed a fold lower luminescence than HiBit-IL23R with LgBit-IL12Rβ1 of 6.19 fold and a fold luminescence over the mean of the receptor constructs expressed in isolation of 10.3 fold. The fold lower luminescence than the equivalent heteromeric condition with LgBit‐IL23R came out at 2.18 fold.

For the substance “Tetramethylrhodamine (TMR) tagged IL‐23 (from UniProt Q9NPF7 20-189; P29460 23-328) (ligand)”, the Kd turned out to be 0.234 nM in test [4] and 0.0362 nM in test [5].

A word on the Kd: it is the concentration at which binding is half-saturated. Read a high Kd as lower affinity.
